Columns and labels:
[1] = tested on: HUVEC; assay: HUVEC cellular migration assay; format: cell-based, human
Description: Robo4-Fc and Robo4-His were contacted with vascular ECs using a HUVEC migration assay and in the presence or absence of VEGF.
Endothelial cell migration was not blocked by anti-Robo4 antibody in an in vitro assay using human umbilical vascular endothelial cells (HUVEC) cellular migration assay. HUVECs endogenously express human Robo4. The assay was performed as follows. HUVECs were pre-incubated for 2 hours with VEGF.

[2] = biological target: T1, UNC5B (Homo sapiens, UniProt Q8IZJ1); assay: SPR binding to immobilized UNC5B-Fc
T1 construct: extracellular domain of UNC5B fused to an Fc region; Fc region
Description: It has been shown that netrin binding to members of the uncoordinated-5 (UNC5) family of receptors (UNC5A, B, C, and D) results in neural axon […] (Klagsbrun, M. and Eichmann, A., Cytokine & Growth Factor Reviews 16(4-5):535-548 (2005)). Netrin-UNC5B interaction has been implicated in angiogenesis (Klagsbrun, M. and Eichmann, A., supra (2005) and Lu, X. et al., Nature 432:179-186 (2004)). The interaction of Robo4 with UNC5B in vitro was determined by SPR binding measurements in which UNC5B-Fc fusion protein (extracellular domain of UNC5B fused to an Fc region) was immobilized on a chip and soluble Robo4-Fc or Robo4-His was allowed to interact with it at different concentrations.

T1 sequence (Q8IZJ1 27-377 limits assumed, species assumed): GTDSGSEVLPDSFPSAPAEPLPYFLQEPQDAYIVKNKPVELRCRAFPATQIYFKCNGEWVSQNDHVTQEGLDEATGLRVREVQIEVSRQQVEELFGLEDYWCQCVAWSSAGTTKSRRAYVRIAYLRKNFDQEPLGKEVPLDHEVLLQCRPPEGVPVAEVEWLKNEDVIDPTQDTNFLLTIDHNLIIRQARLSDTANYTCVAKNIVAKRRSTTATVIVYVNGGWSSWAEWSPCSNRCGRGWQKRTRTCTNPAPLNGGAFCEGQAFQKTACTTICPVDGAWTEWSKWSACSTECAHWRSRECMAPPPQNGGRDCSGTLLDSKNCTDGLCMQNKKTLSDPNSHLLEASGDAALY

interaction with UNC5B [2]: interacts in vitro with UNC5B
B1: Robo4-His: soluble Robo4 extracellular domain fused to a C-terminal Histidine tag (protein)
chain: QDSPPQILVHPQDQLFQGPGPARMSCQASGQPPPTIRWLLNGQPLSMVPPDPHHLLPDGTLLLLQPPARGHAHDGQALSTDLGVYTCEASNRLGTAVSRGARLSVAVLREDFQIQPRDMVAVVGEQFTLECGPPWGHPEPTVSWWKDGKPLALQPGRHTVSGGSLLMARAEKSDEGTYMCVATNSAGHRESRAARVSIQEPQDYRAHHHHHHHH
blocking of endothelial cell migration ([1]; HUVECs pre-incubated with VEGF, 16 hours): Neither anti-Robo4 nor the soluble Robo4 extracellular domain fusion proteins (Robo4-Fc and Robo4-His) blocked EC migration
induction of EC migration ([1]; alone, absence of VEGF): did not induce EC migration

— patent publication US20110059013A1, “ANTI-ROBO4 ANTIBODIES AND USES THEREFOR” (Genentech, Inc., priority 2007, published 2011)
